Assay: soluble on expression in E. coli; label from the status in PepcDB or PDB records

Sequence	soluble on expression in E. coli
MPVEHLDVLIVGAGLSGVGAAYHLMKHCPGKSFALLEGRAAMGGTWDLFRYPGIRSDSDMFTLGYNFKPWSDPKAIADGPSIRRYIEETARENGIDRKIRYRHRVLRADWDSANARWNLDVQRGDEPEPLRMTAQFLLMCTGYYRYEAGYTPEFVGREDFAGQVVHPQLWPEDLDYSGKKVVVIGSGATAVTLVPSLTDKAAHVTMLQRSPSYVITLPQKDAISNFLRRFLPETWIYRQARARNVAMQMVFFMLARTFPGLVRKALLKLASLQLGKRFDIRHFSPRYKPWDERVCAVPDGDLFKVLRKGKASVVTEHIDRFVERGIRLKTGEVLEADIIVTATGLDLVMFGGAELAVDGKPFLVNQSMGYRGIMLRDLPNLAAVVGYTNASWTLKADLSSEYFCRLINHMDATGMRQVTARDSTGDVREEPFLNLDSGYIQRAAERMPKQGDRMPWKLYQNYVLDLALLRYGKVEDGYLVFSSPAPQRQAGGAAVQALGLEHHHHHH	not soluble
MPVNSILGVFAKSPIKPLQEHMDKVYDCASLLVPFFEATITGNWDDAVQIRKQISLAEKQGDSLKREIRLTLPSGLFMPVERTDLLELLTQQDKIANKAKDISGRVIGRQLLIPQALQVPFIAYLQRCIDAVGLAQQVINELDDLLEAGFRGREVDFVAKMINELDIIEEDTDDLQIQLRRQLFALESELNPVDVMFLYKTIEWVGGLADLAERVGSRLELMLARVLEHHHHHH	soluble
MPVVSNTELSMRRQEILEGARRCFAEHGYEGATVRRLEETVGKSRGAIFHHFSDKENLFLALAREDAARMAEVVAENGLVEVMRDMLAHPERHDWLATRLEITKMLRTDPSFRNRWIEHQRVLDDAVLERLQRNAHLGRMRDDVPIDVLHTYLETVLDGFISRLASGGDTDNLERVLDLVEESVRSSQPS	not soluble
MPWRNKEASSPSSANPPLEALQSPSFRGNMADKLKDPSTLGFLEAAVKISHTSPDIPAEVQMSVKEHIMRHTRLQRQTTEPASSTRHTSFKRHLPRQMHVSSVDYGNELPPAAEQPTSIGRIKPELYKQKSVDGEDAKSEATKSCGKINFSLRYDYETETLIVRILKAFDLPAKDFCGSSDPYVKIYLLPDRKCKLQTRVHRKTLNPTFDENFHFPVPYEELADRKLHLSVFDFDRFSRHDMIGEVILDNLFEASDLSRETSIWKDIQYATSESVDLGEIMFSLCYLPTAGRLTLTVIKCRNLKAMDITGYSDPYVKVSLLCDGRRLKKKKTTIKKNTLNPVYNEAIIFDIPPENMDQVSLLISVMDYDRVGHNEIIGVCRVGITAEGLGRDHWNEMLAYPRKPIAHWHSLVEVKKSFKEGNPRL	not soluble
MPYADNGVKIYYEVEDGGEPAIVFVHGWTANMNFWREQREYFKGKHRMLFIDNRGHGKSDKPFNRSFYEFDNFVSDLHAAVKDASFDRFVLVGHSFGTMISMRYCVEHPGRVEALVLIGGGARIQSLHRYGYPIGRLFATLAYGISARIIANMAFGRKAGELRDWGLKEALENTPKHAALNTLWTLTTVDLRDIAREIEKPTLIVVGKEDALLPVSKSEELSRLIKNSKMVIVPDAGHCVMLEQPEIVNRVLEEFIHTFSAMLIRA	not soluble
MPYVTVKMLEGRTEEQKKALAEKVTAAVSETTGAPEENIVVFIEEMSKNHYAVGGKRLSDK	not soluble
MQDIPQETLSETTKAEQSAKVDLWEFDLTAIGGERFFFCNEPNEKGEPLTWQGRQYEPYPIQVQDFEMNGKGASPRPNLVVANLFGLVTGMAEDLQSLVGASVVRHQVYSKFLDAVNFSNGNPDADPEQEAVARYNVEQLSELDSSTATIILASPAETDGSVVPGRTMLADSCPWDYRDENCGYDGPPVADEFDKPTSDPKKDKCSHCMKGCEMRNNLVNAGFFASINKLS	not soluble
MQFFTSDTHFFHKDLLGDSDFAPRPFASVDEMNQTIIDNWNARVAETDTVYHLGDIALYFTKPAIKSDEAVFNVLSQLNGHLELIKGNHDSRALFKYLAAHNFSDHGQPKFAFHDVGALIKYDHRQYYLTHYPMMLGIVNQIINLHGHIHHYAVPVKENINVGVDTPEQRYLTTSVPFGTPFSPTEIEQMVTGKAQEFREKQLEHHHHHH	not soluble
MQFQIGAQGDIADMLTMCNNFPGFEAPMRYMIENSHDVVTVFDGSPAVIVLDELVKADESSYLPFKMKKSYKKVDEIAAKMASEEIHFTIHLSSHSQKNVIQIFQSAYSDGYTEEDKKGKIPEGGRVKCAGTETGARSNVKCEEVAKEVNEYIDSNKDKFGDLKVESLGKADSFMKQKPRRNLFIRVPPLE	not soluble
MQGFELEDLTLWLIRDAGEDQMWIDRWAISYPVVQMSEASAGQSIGEWQAGLQTAFERIRGKYVAVVAHGAGAAAFLAWLYQADILTRKKIANIILVPQRPDIFPDDAEHAFQRVRCPCRAALVVPEHGGVPHGWAQKQADLWNARLLVSPHSGSLNGMLGGWQWGMKLMQEMLLA	not soluble
MQGLESLTYYTENYPPLNFAKEDGKPAGIAVDLLLEAAAAVNVTLNLDQIFVQPWPRSYRSALLKQDGVLFSTTRTTHRENLFNWVGPIADIKVVVLARKSSQIKVNDPIELGNYRIGVIRDDIGEQQLLQLEHHHHHH	not soluble
MQGLTMDDISLSIARNMFHLQVYESDGVRFEDLFSKIMYYKSPDFQQVKPYGNIGDRKNDGFIKGQGVYYQVYAPEDASNNVLAAVNKIKDDFEGLRDYWHDICPIKKYYFVLNDKYKGSLPQLHKELIVLQSDFNLIDTGVIVAKDLERELFNLPDDMIRSVVGHLPDIDHEEYMFVSGFTCFISAWINFEKIARHKVFSAKQPNRPLFIGKVVNALVKNKIISRQDATFIKKITEVRNSLVHGVSMLVPKKNEIDMLIFITEKIKPAGVCRLD	not soluble
MQIFPYSDDPNKRYHTWNYALRQQFGEKIFKVPIDGGFDCPNRDGTVAKGGCTFCSVSGSGDMIVAPSDPLPLQFQKEIQLMHQKWPTVDQYIVYFQNFTNTHAPVDVIRHRFEQVVNEKGVVGLSIGTRPDCLPDEVVNYLAELNERFYLWVELGLQTTFEETSAAINRAHDYQTYLDGVAKLRKHGIRVCTHLINGLPGETPAMMRENVRRTIQDSDIQGIKLHLLHLMTNTKMMRDYNEGRLQLMSKEAYVSVICDQLEMIPPEIVIHRLTGDAPFETIIGPMWSLKKWEVLNAIDAEMKRRNSYQGKYTVISGKEVFN	not soluble
MQIQQNNSLIYNTLTKKLSSFIPIKSTRRKLRNHIQYKLEHPKVTNYLSNNYINPFLEGKIPHFDFEKKHYFKNDKIIWQFWYQGKNQASPMIQQCFNSVQSQMKDDYTIIILDKDNIKDYLDFPPFVIEKLENNFFGEKTITFFSDLLRVCLLATYGGIWCDASIFLSSKIPSELCDKDFFTFERSKIKPSKEKLKKFIKSGYFSYGYFNWNDDFKVKMLSSFMIAKTNNTFIQTLKDILMNYWKNEQSSENHYYFILHIIFELLKEHGFVNDIYKNMSDIECHLLQFSAKEKFNSTLWEEIQKQSFLHKLTHFKSIKKDSMIDKIILQSLEHHHHHH	soluble
MQIQTPDWVKHAVFYQIFPDRFARSKQPRKRLLQEARWEDWDSMPTLQGYKGGDLWGIMEDLDYIQNLGINAIYFTPIFQSASNHRYHTHDYYQVDPMLGGNEAFKELLDAAHQRNIKVVLDGVFNHSSRGFFFFHDVLENGPHSPWVNWFKIEGWPLSPYNGEFPANYVGWAGNRALPEFNHDNPEVREYIMEIAEYWLKFGIDGWRLDVPFEIKTPGFWQEFRDRTKAINPEAYIVGEVWGDSRQWLDGTQFDGVMNYLFAGPTIAFAAGDRVVLEQVQSRDYQPYPPLFAAEYATKIQEVLQLYPWEIQLTQLNLLASHDTARLMTIAGGDIASVELSTLLLLTFPGAPSIYYGDEVGLPGGIDPDSRRGFPLEANWNQEIFNTHRQLITIRQTYPALRTGDYQVLYAQGQLYLFARTLGTEELIIAINAGTSSATANVDVASLHTQPNKLLYGTAEAEWNGEEGTQQLSLTLPARSGCILGTGD	soluble
MQKFIIHKGIACPLEYANIDTDQIIPKQFLLAVSKQGFGKHLFHDLRYLDDKESVLNMDFNLNKKEYQNSSILVSFENFGSGSSREHAPWALVDYGIRAIIAPSFADIFKNNALGNGLLTIELAKDEVLEIVDELKKSQDKNIEISLLEKRVFFKDKIFSFDLDDFHRICLLEGLDNIALTLKHEAQIKAYEKNSKSFLV	soluble
MQKLTVGLIGNPNSGKTTLFNQLTGARQRVGNWAGVTVERKEGIFATTDHQVTLVDLPGTYSLTTISSQTSLDEQIACHYILSGDADMLINVVDASNLERNLYLTLQLLELGIPCVVALNMLDIAEKQQVRIDIDALAARLGCPVIPLVSTRGRGIEALKIALDRHQANSDLELVHYPQPLLREADLLAQQMSAQIPPRQRRWLGLQMLEGDIYSRAYAGDAADKLDIALANLSDEIDDPALHIADARYQTIAAICDAVSNTLTAEP	soluble
MQKPSIPKGMRDFSPVEMSRRNYIFDTIREVYELFGFNQIETPTMEMLSTLMGKYGEEGDRLLFKVLNSGDVLADFCAEELAEKNSLRFAAKACEKGLRYDLTVPFARYVVMHRNEINFPFKRYQIQPVWRADRPQKGRYREFYQCDGDVIGSDSLMNEVELIQIISEVFRRLGIRTRILLNNRKILSGIAEVVDEADRLTDITVAIDKLDKIGLDKVNDELRTKGFGEEAIERLRPFIEMKGDNREKLDRLKSALASSETGLKGIEELTYILDKVERVQLHSELMVDISLARGLSYYTGAILEVKALDAEMGSITGGGRYDNLTGIFGLEGMSGVGISFGADRIYDVMMQLDLFPAEKLTGTQLLFVNFSEEDADSLLPLIQKLREQGLRTELYPEPAKIKKQMSYANAANIPYVALVGENERAAGQVNLKNMLTGEQQMLPADAATIVAAIV	not soluble
MQKQNIVILGSTGSIGKSTLSVIENNPQKYHAFALVGGKNVEAMFEQCIKFRPHFAALDDVNAAKILREKLIAHHIPTEVLAGRRAICELAAHPDADQIMASIVGAAGLLPTLSAVKAGKRVLLANKESLVTCGQLFIDAVKNYGSKLLPVDSEHNAIFQSLPPEAQEKIGFCPLSELGVSKIILTGSGGPFRYTPLEQFTNITPEQAVAHPNWSMGKKISVDSATMMNKGLEYIEARWLFNASAEEMEVIIHPQSIIHSMVRYVDGSVITQMGNPDMRTPIAETMAYPHRTFAGVEPLDFFKIKELTFIEPDFNRYPNLKLAIDAFAAGQYATTAMNAANEIAVQAFLDRQIGFMDIAKINSKTIERISPYTIQNIDDVLEIDAQAREIAKTLLRE	not soluble
MQLKRVAEAKLPTPLGDFLMVGFEELATGHDHAALVFGDISGKTPVLARVHSECLTGDALFSLRCDCGFQLEAALTHIAEEGRGILIYHRQEGRNIGLLNKIRAYALQDQGYDTVEANHQLGFAADERDFTLCADMFKLLGVDEVRLLTNNPKKVEILTEAGINIVERVPLIVGRNPNNEHYLDTKAAKMGHLLSKLEHHHHHH	soluble
MQLNSSSFHPHHFTCDTTRYSEEQVACICEALSNDARKLSQFVWTVLERDEMRNNQYILKAQAFLAFHSNNFKELYRIIESHHFASEHHLPLQEWWLNAHYHEAEKIRGRQLGAVGKYRIRRKYPLPRTIWDGEETSYCFRDKSRVLLRDWYCRNSYPSPREKRELAEKTHLTVTQVSNWFKNRRQRDRAGVPEPKDCLKDISEEEDLKLIRKTASKLSNSFHNPSDLSSYSAAAAAATFPGFYMNYNDMMIGAGTSYQSL	not soluble
MQLPVMPPVSPMLAKSVTAIPPDASYEPKWDGFRSICFRDGDQVELGSRNERPMTRYFPELVAAIRAELPHRCVIDGEIIIATDHGLDFEALQQRIHPAESRVRMLADRTPASFIAFDLLALGDDDYTGRPFSERRAALVDAVTGSGADADLSIHVTPATTDMATAQRWFSEFEGAGLDGVIAKPPHITYQPDKRVMFKIKHLRTADCVVAGYRVHKSGSDAIGSLLLGLYQEDGQLASVGVIGAFPMAERRRLLTELQPLVTSFDDHPWNWAAHVAGQRTPRKNEFSRWNVGKDLSFVPLRPERVVEVRYDRMEGARFRHTAQFNRWRPDRDPRSCSYAQLERPLTVSLSDIVPGLR	not soluble

— the DeepSol protein solubility set
